# Ends that are not written are not given here.
# B1: Mycobacterium tuberculosis GrpE, full length, wild type (natural protein)
# chain: MTDGNQKPDGNSGEQVTVTDKRRIDPETGEVRHVPPGDMPGGTAAADAAHTEDKVAELTADLQRVQADFANYRKRALRDQQAAADRAKASVVSQLLGVLDDLERARKHGDLESGPLKSVADKLDSALTGLGLVAFGAEGEDFDPVLHEAVQHEGDGGQGSKPVIGTVMRQGYQLGEQVLRHALVGVVDTVVVDAAELESVDDGTAVADTAENDQADQGNSADTSGEQAESEPSGS
# notes: GrpE (nucleotide exchange factor) of Mycobacterium tuberculosis, full length; also called Mtb GrpE; WT GrpE
# B2: Mycobacterium tuberculosis GrpE, wild type, full length (natural protein)
# chain: B1 chain
# notes: GrpE (nucleotide exchange factor) of Mycobacterium tuberculosis, full length, 235 residues (C-terminal residues printed as aa 188-235); also called Mtb GrpE; WT GrpE
# B3: N-terminal fluorescein-labeled NR peptide (NRLLLTG) (peptide)
# peptide: fluorescein-NRLLLTG
# notes: model peptide substrate of DnaK; also called F-NR; fluorescently tagged NR; source: bought: PEPTIDE 2.0 (purity >95%)
# Key:
# [1] = target: T1, Mycobacterium tuberculosis DnaK, full length, wild type (Mycobacterium tuberculosis, UniProt P9WMJ9 1-625); assay: ITC; settings: both partners purified
# T1 construct: DnaK (Hsp70 chaperone) of Mycobacterium tuberculosis, full length; also called Mtb DnaK; WT DnaK
# [2] = target: T2, Mycobacterium tuberculosis DnaK Mut-1 (Y106A, L107A) (Mycobacterium tuberculosis, UniProt P9WMJ9 1-625, Y106A | L107A); assay: ITC; settings: both partners purified
# T2 construct: DnaK of Mycobacterium tuberculosis, full length, with two alanine substitutions in NBD subdomain IA
# [3] = target: T3, Mycobacterium tuberculosis DnaK, wild type, full length (Mycobacterium tuberculosis, UniProt P9WMJ9 1-625); assay: SEC-MALS; settings: both partners purified
# T3 construct: DnaK (Hsp70 chaperone) of Mycobacterium tuberculosis, full length; also called Mtb DnaK; WT DnaK
# [4] = target: the molecule itself; assay: cryo-EM structure; DnaK 2 μM, DnaJ2 4 μM, GrpE 4 μM, telaprevir 200 μM in 25 mM Tris pH 8.0, 40 mM NaCl, 10 mM MgCl2; no nucleotide; 3.7 Å map
# [5] = target: T3, Mycobacterium tuberculosis DnaK, wild …; assay: fluorescence polarisation; direct binding of F-NR to DnaK in the presence of ADP or without nucleotide; settings: both partners purified
binder,measurement,setting,value
B1,Kd,[1],240 nM
same,stoichiometry N,[1],0.69
same,Kd,[2],1070 nM
same,stoichiometry N,[2],0.13
B2,stoichiometry N,[3],2 GrpE per DnaK
same,stoichiometry N,[4],2
B3,binding result,[5],binds

# — article PMC10803776, “Structure of the M. tuberculosis DnaK−GrpE complex reveals how key DnaK roles are controlled” (Nature Communications, 2024)
